# Test: label from the status in PepcDB records
row,Sequence,protein production
1,EKGLEIAQERKARDEGWGDSIATMEMILKNAQGESSTRLMRLKSLEVEGDGDKGLTIFDQPRDVTGTAFLNHSHTIGADDQWLYLPALKRVKRISSRNKSGPFMGSEFAYEDLSSFEIEKYRFNHLKDEKFNGQDVFVLEQIPTDKNSGYTKQVVWLDKAHYRPLKVEFYDRKGALLKTLTFANYKQYLDKYWRAHTMAMTNHQTGKSTELNTSDLRFQTGLEENDFNKNVLKR,not failed
2,MEYYQPVEINVLSAQDLNSINLLFRPTVYVSVSVTRGSRDKQVTPAAAWDKKFLRWNYRMKFYIEDDKVRRNESVFVFQIKCKRFFGSDQVVGKLFIPGCRLGVWGNIRHEPSAPCEDDIYA,failed
3,MDTLAYLHLAETYETSTTDESSPEIPWTKNQSSALMLVASFAMGSLNWCLPTVAALKKGHRNPQVASLQQKLRASGYFPQVATGYFGSVTEAAVKRFQQANGLKADGIVGAATLAALESSIGVSESSITDPQIATSKSSLKQGDISDRVMSLQEKLQADGYYQGAITGNFDAATQAAVIQFQQANRLVVDGIVGPQTSSVLASSTRKLAASLPQKTTLEPFLTQQPQNQVKISPQSAAPPSPSQKMRLIKTISGKISPKSVVYSGNGLFFAQNMMYNHTITVYDRNYELVKVIPDEVDLSKYGHSRFKGKYRGAPVEASFSHNGKYAWISNYQMYGPGFNNPGSDKCHPSQKTDKSFLYRINTETLKIDRVIPVGSVPKFVATSTDENLILVSNWCSWDLSVVDINQNQEIKRIKLGPYPRGIVVDPASETAYVAVMGSYNIAKVNLRDFSVQWLRNIGSSPRHLNIDPAGKYLYASLNGEGKIAKISLPQGNLVKKIATGNAPRSMVLSANGQTLYVVNYGEDTVSKVRTSDMKVLQKVKVEPDPIGITYDPQTREVWVACYSGNIMIFQD,failed
4,MKKGLTFSITSAALFFGMNHVASADQIHTVKEDAKLTDIAQTFATTTTEIQNLNHLQNRDYVQVGETIVLPDSDIVEVKDGDTIKAIAERHQMTMNQLYQLNPNLGEVIYPGQLVAVSEKGSAHLNNQLQQIFNSHEAVQPTAQINDDERNKAENNTIRNVRTSGNITPSATQTWQNNDYSASDRQQVSNTTANEQVTSNYQYSPVSHASNGSNYYDWGQCTYYAFDRRQQLGKSVGNLWGNANNWASAAQQSGYQVNNTPEVGAIFQSTAGNYGHVGVVESKNADGSIVVSEMNWQGVGQKSYRTIHNTGQYNYIHLEHHHHHH,failed
5,MKWLLVASAALYLFGSFRRPLFALGLGAGLAYLALRGISLGRLPLVGPHDTIAFFSASIGLMTLPFLFSPSLRNSSAFPWATGGTAAVFALFSLAFPALAMPLPPILNTLWFELHVALAFFAYALFTIGAIMGVLFLAGGERRLLDLQYRAALVGYTFFSGSMVAGGIWGYYAWGTYWLWTPKELWTSILWIFYTFWLHLRLRGAGGDRLLAWTGILGFGVMLFTYLGVSMLMKSSHSF,failed
6,MNGASLCNSVLLHSHSLSRFQSSSSSCSVYLISSARTTSKYISISHRIRQSFREVIEKRSNGFCSFAVNKRRSGDSVIVESDDDDEEDDEDWGEFDGEDEGEEEEEDEGEFLPMDKMKKWLEKKPRGFGLGKKYETLIEDKLLDEIEQSWKAQAANLNKLKNDPLKSQQLKRDDNLLKGTGETQIGFRVRVTNLPKKKNVHRDLKVAFKEVSGVLSITPAVSGNKKTKDPVCKGFAHVDFKTEIDANRFVKQFTGQSLAFGKVIKQIKCQVVEFTSDDSVSKEVYLDNGFKVQKLPYSGLEGDSSADVVEEEVLLGSGEESDDSEEEVDEREVEDDERNHISSSIESSPIEMTRDSNTKLKFEKQVVKREIREHEELETPLVSFQVNKSEEAAAETHLDDEQSEEAVAETLLNDELDGDDEEEVAEDNLEPLNSSLSSSEENRVDRIRRLEQKLLGKEKLLGGGVGFDKPEAKPARVEGKKKEKKKKTKILVKGQAKKGTKIEIPGSSKR,failed

# Reference: a protein production outcome set (Wang et al. 2014)
